Test results from US20110123544A1 (published 2011).
Residue numbers refer to the chain shown, from its start. Numbers in names are those of the source. Each block holds one molecule with its values, some of them ahead of it.

Tests used:
[1] = target: recombinant human IL-12 (rhIL-12) (human) (UniProt P29459); experiment: cell-based or functional assay
[2] = target: recombinant rhesus IL-12 (rhesus monkey) (UniProt P48091); experiment: cell-based or functional assay
Cyno IL-12 (PBMC sup) = target: T1, Cyno IL-12 (PBMC sup) (cynomolgus monkey); experiment: cell-based or functional assay
T1 chain 1: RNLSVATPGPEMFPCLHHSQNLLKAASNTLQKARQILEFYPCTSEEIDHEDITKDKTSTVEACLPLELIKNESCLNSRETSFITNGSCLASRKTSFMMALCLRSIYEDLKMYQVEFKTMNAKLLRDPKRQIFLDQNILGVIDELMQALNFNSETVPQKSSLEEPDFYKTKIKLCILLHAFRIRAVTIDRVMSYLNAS
T1 chain 2: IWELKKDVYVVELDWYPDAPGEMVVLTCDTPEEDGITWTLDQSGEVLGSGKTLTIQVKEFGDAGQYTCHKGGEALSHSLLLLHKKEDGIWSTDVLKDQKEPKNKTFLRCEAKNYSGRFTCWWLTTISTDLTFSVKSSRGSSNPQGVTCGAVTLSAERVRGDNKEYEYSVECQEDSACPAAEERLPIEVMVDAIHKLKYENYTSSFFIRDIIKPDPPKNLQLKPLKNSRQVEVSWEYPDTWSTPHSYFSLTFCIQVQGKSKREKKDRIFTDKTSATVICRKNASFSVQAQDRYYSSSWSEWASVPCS

Baboon IL-12 (PBMC sup) = target: T2, Baboon IL-12 (PBMC sup) (baboon); experiment: cell-based or functional assay
T2 chain 1: T1 chain 1 with F82V, N85K, K110Q, M111I, R125M, K172R
T2 chain 2: T1 chain 2 with V230A

[3] = target: recombinant murine IL-12 (mouse) (UniProt P43431); experiment: cell-based or functional assay
[4] = target: recombinant murine IL-12 (mouse) (UniProt P43431); experiment: Receptor Binding Assay: inhibition of 125I-murine IL-12 binding to receptors on 2D6 cells
[5] = target: recombinant murine IL-12 (mouse) (UniProt P43431); experiment: Biomolecular Interaction Assay; C17.15 captured on goat anti-rat IgG, soluble recombinant murine IL-12
[6] = target: human IL-12 (recombinant human IL-12, p70 heterodimer of p35 and p40) (human) (UniProt P29459); experiment: cell-based or functional assay
[7] = target: human IL-12 (recombinant human IL-12, p70 heterodimer of p35 and p40) (human) (UniProt P29459); experiment: BIAcore SPR, IL-12 chip
[8] = target: T3, recombinant human IL-12 (rhIL-12) (human, UniProt P29459 23-219; P29460 23-328); experiment: cell-based or functional assay
T3 sequence (looked up) 1: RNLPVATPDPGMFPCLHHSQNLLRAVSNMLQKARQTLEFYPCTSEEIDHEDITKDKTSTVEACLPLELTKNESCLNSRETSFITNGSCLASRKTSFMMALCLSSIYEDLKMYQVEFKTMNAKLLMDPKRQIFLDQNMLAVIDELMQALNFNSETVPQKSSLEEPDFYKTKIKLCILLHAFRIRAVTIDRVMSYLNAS
T3 sequence (looked up) 2: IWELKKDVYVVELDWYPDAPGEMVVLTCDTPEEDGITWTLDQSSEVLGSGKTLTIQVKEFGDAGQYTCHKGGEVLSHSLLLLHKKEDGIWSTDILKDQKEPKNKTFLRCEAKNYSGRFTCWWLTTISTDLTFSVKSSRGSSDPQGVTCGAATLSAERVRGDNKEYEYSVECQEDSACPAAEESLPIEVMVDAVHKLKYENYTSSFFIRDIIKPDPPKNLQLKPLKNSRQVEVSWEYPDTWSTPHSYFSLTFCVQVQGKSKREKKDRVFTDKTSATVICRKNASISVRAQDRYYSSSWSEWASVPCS

[9] = target: human IL-12 (recombinant human IL-12, p70 heterodimer of p35 and p40) (human) (UniProt P29459); experiment: RB assay: 125I-hIL-12 binding to PHA blasts
[10] = target: T4, recombinant human interleukin 12 (p40/p35 heterodimer) (human, UniProt P29460 23-328; P29459 23-219); experiment: IL-12 receptor binding assay (RBA): inhibition of labelled IL-12 binding to PHA blasts
T4 construct: Disulfide-linked heterodimer; also called human IL-12; hIL-12
T4 sequence (looked up) 1: T3 sequence (looked up) 2
T4 sequence (looked up) 2: T3 sequence (looked up) 1

[11] = target: T4, recombinant human interleukin 12 …; experiment: surface plasmon resonance (BIAcore)
recombinant rhesus IL-12 = target: T5, recombinant rhesus IL-12 (rhesus monkey, UniProt P48095 23-328; P48091 23-219); experiment: neutralisation bioassays with purified rhesus IL-12
T5 construct: Obtained from Emory University School of Medicine
T5 sequence (looked up) 1: T1 chain 2
T5 sequence (looked up) 2: T1 chain 1

recombinant murine IL-12 = target: T6, recombinant murine IL-12 (mouse, UniProt P43432 23-335; P43431 23-215); experiment: neutralisation bioassay with purified murine IL-12 (2D6 cell proliferation)
T6 construct: R&D Systems Cat. No. 419-ML in the BIAcore test; 'purified murine IL-12' in the bioassays; also called mouse IL-12; rmIL12
T6 sequence (looked up) 1: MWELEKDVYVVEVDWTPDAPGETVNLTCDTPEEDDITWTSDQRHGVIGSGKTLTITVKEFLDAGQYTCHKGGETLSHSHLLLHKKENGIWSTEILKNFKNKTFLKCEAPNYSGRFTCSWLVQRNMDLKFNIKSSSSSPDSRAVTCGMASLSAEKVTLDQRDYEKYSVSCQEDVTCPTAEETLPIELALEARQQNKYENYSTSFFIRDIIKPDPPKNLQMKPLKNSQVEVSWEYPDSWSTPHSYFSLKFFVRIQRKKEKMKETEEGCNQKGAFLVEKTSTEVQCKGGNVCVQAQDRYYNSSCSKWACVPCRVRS
T6 sequence (looked up) 2: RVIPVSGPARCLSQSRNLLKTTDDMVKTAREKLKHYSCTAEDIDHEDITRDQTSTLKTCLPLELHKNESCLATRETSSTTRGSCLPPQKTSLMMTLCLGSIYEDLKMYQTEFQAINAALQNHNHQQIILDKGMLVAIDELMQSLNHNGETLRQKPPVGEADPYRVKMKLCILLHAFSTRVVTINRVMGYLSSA

[12] = target: T7, recombinant human interleukin 12 (p40/p35 heterodimer) (human, UniProt P29460 23-328; P29459 23-219); experiment: BIAcore; unmutated
T7 chain 1: T3 sequence (looked up) 2
T7 chain 2: T3 sequence (looked up) 1

[13] = target: T8, human IL-12 (recombinant human IL-12, p70 heterodimer of p35 and p40) (human, UniProt P29459 23-219; P29460 23-328); experiment: cell-based or functional assay
T8 sequence (looked up) 1: T3 sequence (looked up) 1
T8 sequence (looked up) 2: T3 sequence (looked up) 2

- IC50 (M), Human IL-12 Purified [1]: 5e-11 M
- IC50 (M), Rhesus IL-12 Purified [2]: 1e-10 M
- IC50 (M), Cyno IL-12 PBMC sup (Cyno IL-12 (PBMC sup)): 1.2e-10 M
- IC50 (M), Baboon IL-12 PBMC sup (Baboon IL-12 (PBMC sup)): 2e-10 M
Molecule: C8.6.2, mouse anti-human IL-12 monoclonal antibody

- IC50 (M), Mouse IL-12 Purified [3]: 3e-11 M
- PHA blast Assay IC50 [3]: 0.014 nM
- IC50 [4]: 0.15 nM
- Kd [5]: 0.48 nM
- koff [5]: 0.000184 s⁻¹
- kon [5]: 380000 M⁻¹ s⁻¹
Molecule: C17.15, rat anti-murine IL-12 monoclonal antibody

- PHA assay IC50 [6]: 3 nM
- koff [7]: 0.00113 s⁻¹
- PHA assay IC50 (M) p70:p40 1:0 [8]: 3.5e-09 M
- PHA assay IC50 (M) p70:p40 1:20 [8]: 2.5e-09 M
- PHA assay IC50 (M) p70:p40 1:50 [8]: 4e-09 M
- IC50 [9]: 0.9 nM
B1: 149-7 (scFv, V domains shown)
VH: QVQLVQSGGGVVQPGRSLRLSCAASGFTFSSYGMHWVRQAPGKGLEWVAFIRYDGSNKYYADSVKGRFTISRDNSKNTLYLQMKSLRAEDTAVYYCTTHGSHDNWGQGTMVTVSS
VL: SYVLTQPPSVSGTPGQRVTISCSGGRSNIGSNTVKWYQQLPGTAPKLLIYGNDQRPSGVPDRFSGSKSGTSASLAITGVQAEDEADYYCQSYDRDFTGSRVFGTGTKVTVL

- IC50 [10]: 1000 nM
B2: Joe 9 wild type (scFv, V domains shown)
VH: B1 VH with H99S, H102Y, N104Y
VL: B1 VL with R94S, D95S, F96L, T97R

- koff [11]: ~0.0002 s⁻¹
B3: Y61 scFv (scFv, V domains shown)
VH: B1 VH with T97K
VL: SYVLTQPPSVSGTPGQRVTISCSGGRSWIGSNTVKWYQQLPGTAPKLLIYGNDQRPSGVPDRFSGSKSGTSASLAITGVQAEDEADYYCQSYDRGTHPALLFGTGTKVTVLG
notes: Single-chain Fv; also called clone Y61

- binding result (recombinant rhesus IL-12): binds
- binding result (recombinant murine IL-12): no binding
B4: J695 human anti-human IL-12 antibody (antibody, V domains shown)
VH: B1 VH with Q6E, K84N, T97K
VL: B3 VL with S1Q, Y2S, T13A, G25S, W28N, G51Y, V79L, G95Y
notes: tested as human IgG1 with lambda light chain (detected with anti-human lambda); Made in CHO or COS cells; also called Y61-L94Y-L50Y IgG

- IC50 (M), Cyno IL-12 PBMC sup (Cyno IL-12 (PBMC sup)): 1e-11 M
- IC50 (M), Baboon IL-12 PBMC sup (Baboon IL-12 (PBMC sup)): 1.5e-11 M
B5: J695 (Y61-L94Y-L50Y IgG) (antibody, V domains shown)
VH: B1 VH with Q6E, K84N, T97K
VL: B3 VL with S1Q, Y2S, T13A, G25S, W28N, G51Y, V79L, G95Y

- koff [12]: 0.000385 s⁻¹
Molecule: FIRYDGSNKYYADSVKG [Y61 H56 N]

- PHA assay IC50 [13]: 200 nM
B6: 70-1 IgG1 (antibody, V domains shown)
VH: HGSHDN
VL: QSYDSSLRGSRV

- koff [12]: 0.00031 s⁻¹
Molecule: FIRYDGSNKYYADSVKG [Y61 H58 Y]
